According to patent US8629107B2, “Genes and proteins associated with angiogenesis and uses thereof” (National Jewish Health, priority 2005, dated 2014):

Key:
Type in all cases: cell-based, murine
[1] = test system: MB114 cells; test: angiogenic sprouting in rat tail collagen matrices; settings: 5 days; for angiogenic sprouting of quiescent MB114 cell monolayers: MB114 cells stably expressing the transgene vs GFP, 10% FBS
Method: (§1) The effect putative angiogenic agents had on MB114 cell activities were determined as follows: (i) cell proliferation using a [^3H]thymidine incorporation assay as described (Albig et al, 2006; Albig and Schiemann, 2004; Albig and Schiemann, 2005); (ii) cell invasion through Matrigel matrices using a modified Boyden-chamber assay as described (Albig et al, 2006; Albig and Schiemann, 2004; Albig and Schiemann, 2005); (iii) p38 MAPK phosphorylation using immunoblot analyses as described (Albig et al, 2006; Albig and Schiemann, 2004; Albig and Schiemann, 2005); (iv) angiogenic sprouting in rat tail collagen matrices as described (Albig et al, 2006; Albig and Schiemann, 2004); and (v) Hes1- and SBE-driven luciferase reporter gene assays as described (Albig et al, 2006; Albig and Schiemann, 2004; Albig and Schiemann, 2005).
Finally, it was determined whether expression of these putative angiogenic factors could effect the angiogenic sprouting of quiescent MB114 cells monolayers. MB114 cells expressing either GFP or various putative angiogenic agents were grown to confluency, and subsequently were overlaid with rat tail collagen matrices. Angiogenic sprouting by quiescent EC monolayers was stimulated by inclusion of 10% FBS and allowed to proceed for 5 days. The quantity of invading angiogenic sprouts was determined by manual counting under a light microscope.
Based on the findings described in the Examples above, the inventors hypothesized that MAGP-2 promotes angiogenesis by antagonizing Notch1 signaling. To test this hypothesis, it was first determined whether inhibiting Notch signaling in MB114 cells would enhance their angiogenic sprouting. In doing so, MB114 cells were transiently transfected with the Hes1-luciferase reporter gene (and pCMV-β-gal cDNA as control), and subsequently were treated overnight with or without the highly specific gamma-secretase inhibitor, DAPT (Sastre et al, 2001), which inhibits S3-mediated cleavage of Notch1 and, consequently, NICD-mediated induction of Hes1 expression. Afterward, luciferase and β-gal activities were determined. […] In this experiment, quiescent MB114 cell monolayers were overlaid with rat tail collagen matrices, and were induced to form angiogenic sprouts by addition of 10% FBS supplemented with or without DAPT (10 μM). Five days later the number of invading angiogenic spouts were quantified by manual counting on a light microscope. Based on these findings, the inventors conclude that Notch activation functions in mediating angiostasis in MB114 cells. […] Collectively, these findings indicate that Notch1 signaling antagonizes angiogenic sprouting in MB114 cells, and that downregulation of Notch1 signaling components is necessary for angiogenesis activation in MB114 cells.
Having shown that Notch1 signaling mediates angiostasis in MB114 cells, the inventors next asked whether MAGP-2 promotes angiogenesis in MB114 cells via its ability to antagonize Notch signaling. To do so, MAGP-2-expressing MB114 cells were engineered to constitutively express active Notch1 NICD fragment in an attempt to overcome the block of Notch processing mediated by MAGP-2. More particularly, GFP-, MAGP-2-, and MAGP-2/N1ICD-expressing MB114 cells were transiently transfected with pHes1-luciferase and pCMV-β-gal cDNAs. Luciferase and β-gal activities were determined 48 h post-transfection. As the inventors observed previously, MAGP-2 expression reduced Hes1-luciferase activity in MB114 cells (FIG. 5C), a reaction that was bypassed by co-expression of NICD in these cells (FIG. 5C). […] In this experiment, quiescent monolayers of GFP-, MAGP-2-, and MAGP-2/N1ICD-expressing MB114 cells were overlaid with rat tail collagen matrices and incubated in the absence or presence of 10% FBS for 5 days. Afterward, the number of invading angiogenic sprouts were determined by manual counting under a light microscope.

[2] = test system: Hes1 promoter (Notch1 signaling); test: Hes1-driven luciferase reporter gene assay in MB114 cells; settings: MB114 cells treated overnight with 10 μM
Method: as §1
MAGP-2 can interact physically with Notch1 and its ligand, Jagged-1 (Miyamoto et al, 2006; Nehring et al, 2005), resulting in the ectodomain shedding of both molecules from the cell surface. Notch signaling also plays an essential role in regulating normal vessel development and angiogenesis in mammals (Leong and Karsan, 2005; Shawber and Kitajewski, 2004). Given these two facts, the inventors hypothesized that MAGP-2 promotes angiogenesis by modulating Notch1 signaling. To test this hypothesis, first measured were changes in luciferase expression driven by a Hes1-luciferase reporter gene whose expression is induced by Notch1 activation (Iso et al, 2003). MB114 and HUVEC cells were transiently transfected either with pHes1-luciferase, pCMV-β-gal, and MAGP-2 cDNAs, or with pHes1-luciferase and pCMV-β-gal cDNAs and subsequently stimulated with rMAGP-2 (1 or 5 mg/ml). Afterward, luciferase and β-gal activities contained in detergent-solubilized cell extracts were measured. In addition, GFP- and MAGP-2-expressing MB114 cells were transiently transfected with pHes1-luciferase and pCMV-β-gal cDNAs, together with or without Jagged-1 cDNA as indicated. Afterward, luciferase and β-gal activities were measured as above.
To further investigate the impact of MAGP-2 on Notch1 processing and NICD accumulation, the inventors took advantage of recent findings showing that the ability of TGF-β to induce Hes1 promoter activity requires Smad3 to interact physically with NICD (Blokzijl et al, 2003), a reaction that is dispensable for canonical Smad3-mediated signaling stimulated by TGF-β (Blokzijl et al, 2003). It was therefore reasoned that the ability of MAGP-2 to inhibit NICD production in ECs would reduce the capacity of TGF-β to induce luciferase expression driven by the Hes1 promoter, but not that driven by the synthetic Smad2/3-binding element (SBE). GFP- and MAGP-2-expressing MB114 cells were transiently transfected with either pHes1- or pSBE-luciferase, both together with pCMV-β-gal as indicated in FIG. 4B. Afterward, the resulting transfectants were stimulated overnight with increasing concentrations of TGF-β1 (0-5 ng/ml).
Based on the findings described in the Examples above, the inventors hypothesized that MAGP-2 promotes angiogenesis by antagonizing Notch1 signaling. To test this hypothesis, it was first determined whether inhibiting Notch signaling in MB114 cells would enhance their angiogenic sprouting. […] Afterward, luciferase and β-gal activities were determined. […]

[3] = test system: MB114 cells; test: cell invasion through Matrigel matrices, modified Boyden-chamber assay; settings: MB114 cells stably expressing the transgene vs GFP; 48 h
Method: as §1
(§2) FIG. 1A show results from an experiment in which serum-starved MB114 cells, stably expressing either GFP or various putative angiogenic agents, were stimulated in the absence or presence of either bFGF (50 ng/ml) or EGF (10 ng/ml) for 24 h at 37° C. Differences in MB114 cell DNA synthesis was determined by measuring [^3H]thymidine incorporation into cellular DNA. […] In this experiment, invasion of MB114 cells expressing either GFP or various putative angiogenic agents through synthetic basement membranes was determined over 48 h using a modified Boyden-chamber assay.

[4] = test system: MB114 cells; test: cell proliferation, [3H]thymidine incorporation assay; settings: serum-starved MB114 cells stably expressing the transgene vs GFP; EGF 10 ng/ml, 24 h, 37° C.
Method: as §1, §2

| Molecule | angiogenic sprouting of quiescent MB114 cell monolayers [1] | also measured |
| --- | --- | --- |
| C[C@H](NC(=O)Cc1cc(F)cc(F)c1)C(=O)N[C@H](C(=O)OC(C)(C)C)c1ccccc1 [DAPT, reference compound] |  | number of invading angiogenic sprouts ([1]; MB114 monolayers, 10% FBS with 10 μM compound vs untreated): significantly more; Hes1 promoter activity (Hes1-luciferase) [2]: significantly inhibited |
| CRELD-2: secretory protein stably expressed in MB114 cells by retroviral transduction (protein, UniProt Q9CYA0 23-350, looked up) Protein disulfide isomerase …: SRKPTMCQRCRTLVDKFNQGMANTARKNFGGGNTAWEEKTLSKYEFSEIRLLEIMEGLCDSSDFECNQLLEQQEEQLEAWWQTLKKEHPNLFEWFCVHTLKACCLPGTYGPDCQECQGGSERPCSGNGYCSGDGSRQGDGSCQCHTGYKGPLCIDCTDGFFSLQRNETHSICSACDESCKTCSGPSNKDCIQCEVGWARVEDACVDVDECAAETSPCSDGQYCENVNGSYTCEDCDSTCVGCTGKGPANCKECIAGYTKESGQCTDIDECSLEEKACKRKNENCYNVPGSFVCVCPEGFEETEDACVQTAEGKVTEENPTQPPSREDL | failed to significantly affect | MB114 cell invasion through synthetic basement membranes [3]: significantly induced |
| ECM-1: secretory glycoprotein stably expressed in MB114 cells by retroviral transduction (protein, UniProt Q61508 20-559, looked up) Extracellular matrix protein 1: ASEGAFKASDQREMTPERLFQHLHEVGYAAPPSPPQTRRLRVDHSVTSLHDPPLFEEQREVQPPSSPEDIPVYEEDWPTFLNPNVDKAGPAVPQEAIPLQKEQPPPQVHIEQKEIDPPAQPQEEIVQKEVKPHTLAGQLPPEPRTWNPARHCQQGRRGVWGHRLDGFPPGRPSPDNLKQICLPERQHVIYGPWNLPQTGYSHLSRQGETLNVLETGYSRCCRCRSDTNRLDCLKLVWEDAMTQFCEAEFSVKTRPHLCCRLRGEERFSCFQKEAPRPDYLLRPCPVHQNGMSSGPQLPFPPGLPTPDNVKNICLLRRFRAVPRNLPATDAIQRQLQALTRLETEFQRCCRQGHNHTCTWKAWEGTLDGYCERELAIKTHPHSCCHYPPSPARDECFAHLAPYPNYDRDILTLDLSRVTPNLMGQLCGSGRVLSKHKQIPGLIQNMTIRCCELPYPEQACCGEEEKLAFIENLCGPRRNSWKDPALCCDLSPEDKQINCFNTNYLRNVALVAGDTGNATGLGEQGPTRGTDANPAPGSKEE | significantly decreased |  |
| AK002276: putative transmembrane protein stably expressed in MB114 cells by retroviral transduction (protein, listed as Mus musculus) MASRESGGSRAAALLLVLGVERSLALPKICTLCPGGMHNLSRVAAYCEDTSKLMQARCCLNQKGPILGLNLQNCSLKDPGPNFLQAYTAIIIDLQANPLKDDLANTFRGFTQLQTLILPQDVPCPGGSNAWDNVTSFKDKQICQGQRDLCNSTGSPEMCPENGSCASDGPGLLQCVCADGFHGYKCMRQGSFSLLMFFGILGSTTLAISILLWGTQRRKAKAS | failed to significantly affect | proliferative response of MB114 cells to EGF ([3H]thymidine incorporation into cellular DNA) [4]: significantly enhanced |
| matrillin-2: secretory protein stably expressed in MB114 cells by retroviral transduction (protein, UniProt O08746 24-956, looked up) Matrilin-2: RERPQARFPSRGRHVRMYPQTALLESSCENKRADLVFIIDSSRSVNTYDYAKVKEFILDILQFLDIGPDVTRVGLLQYGSTVKNEFSLKTFKRKSEVERAVKRMRHLSTGTMTGLAIQYALNIAFSEAEGARPLRENVPRIIMIVTDGRPQDSVAEVAAKARNTGILIFAIGVGQVDLNTLKAIGSEPHKDHVFLVANFSQIESLTSVFQNKLCTVHMCSVLEHNCAHFCLNTPGSYICKCKQGYILSTDQKTCRIQDLCATEDHGCEQLCVNMLGSFVCQCYSGYTLAEDGKRCTAVDYCASENHGCEHECVNAESSYLCRCHEGFALNSDKKTCSKIDYCASSNHGCQHECVNAQTSALCRCLKGFMLNPDRKTCRRINYCALNKPGCEHECVNTEEGHYCRCRQGYNLDPNGKTCSRVDHCAQQDHGCEQLCLNTEESFVCQCSEGFLINDDLKTCSRADYCLLSNHGCEYSCVNTDKSFACQCPEGHVLRSDGKTCAKLDSCALGDHGCEHSCVSSEDSFVCQCFEGYILRDDGKTCRRKDVCQDVNHGCEHLCVNSGESYVCKCLEGFRLAEDGKRCRRKNVCKSTQHGCEHMCVNNGNSYLCRCSEGFVLAEDGKHCKRCTEGPIDLVFVIDGSKSLGEENFETVKHFVTGIIDSLAVSPKAARVGLLQYSTQVRTEFTLRGFSSAKEMKKAVTHMKYMGKGSMTGLALKHMFERSFTQVEGARPPSTQVPRVAIVFTDGRAQDDVSEWASKAKANGITMYAVGVGKAIEEELQEIASEPIDKHLFYAEDFSTMGEISEKLKEGICEALEDSGGRQDSAAWDLPQQAHQPTEPEPVTIKIKDLLSCSNFAVQHRFLFEEDNLSRSTQKLFHSTKSSGNPLEESQDQCKCENLILFQNVANEEVRKLTQRLEEMTQRMEALENRLKYR | failed to significantly affect |  |
